According to patent US20200002421A1 (AbbVie / Abbott, published 2020):
Where a chain is given by its changes, count along the chain named.

T1: Human full length B7-H3 (human, UniProt Q5ZPR3 29-534)
T1 construct: on 3T12 transfectants, NCI-H1650 and other cells; also called huB7-H3; hu B7-H3
T1 sequence: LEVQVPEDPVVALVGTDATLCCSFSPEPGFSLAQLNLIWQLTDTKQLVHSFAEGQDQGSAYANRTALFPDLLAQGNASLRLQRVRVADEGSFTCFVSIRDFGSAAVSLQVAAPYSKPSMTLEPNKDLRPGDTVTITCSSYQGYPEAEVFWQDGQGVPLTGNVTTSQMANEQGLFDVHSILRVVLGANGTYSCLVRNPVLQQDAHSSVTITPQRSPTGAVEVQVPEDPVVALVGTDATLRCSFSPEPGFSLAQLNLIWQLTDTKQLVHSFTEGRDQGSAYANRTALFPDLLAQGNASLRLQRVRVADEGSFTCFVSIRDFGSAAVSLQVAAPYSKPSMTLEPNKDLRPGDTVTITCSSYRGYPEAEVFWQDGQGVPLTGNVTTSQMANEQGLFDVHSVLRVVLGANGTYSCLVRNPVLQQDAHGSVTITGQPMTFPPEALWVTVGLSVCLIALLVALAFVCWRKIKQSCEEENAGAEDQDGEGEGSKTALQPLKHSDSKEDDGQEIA

T2: hB7-H3 (ELISA antigen of Tables 17 and 20) (human, UniProt Q5ZPR3 29-466, limits assumed)
T2 sequence: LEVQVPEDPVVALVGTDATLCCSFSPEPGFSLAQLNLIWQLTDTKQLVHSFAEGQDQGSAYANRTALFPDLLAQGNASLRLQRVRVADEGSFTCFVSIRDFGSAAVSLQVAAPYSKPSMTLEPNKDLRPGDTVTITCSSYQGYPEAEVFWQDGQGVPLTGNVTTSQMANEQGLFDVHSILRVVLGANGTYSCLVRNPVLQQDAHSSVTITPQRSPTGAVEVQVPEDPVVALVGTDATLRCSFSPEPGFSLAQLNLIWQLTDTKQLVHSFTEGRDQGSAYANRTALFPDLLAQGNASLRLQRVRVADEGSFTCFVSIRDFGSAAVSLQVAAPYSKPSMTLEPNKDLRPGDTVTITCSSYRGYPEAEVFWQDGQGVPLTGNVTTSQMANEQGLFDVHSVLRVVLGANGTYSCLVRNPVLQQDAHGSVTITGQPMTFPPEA

B1: huAb3v2.5 (antibody, human IgG1, kappa, L234A L235A, V domains shown)
VH: EVQLVQSGAEVKKPGSSVKVSCKASGYTFSSYWMHWVRQAPGQGLEWIGLIHPESGSTNYNEMFKNRATLTVDRSTSTAYMELSSLRSEDTAVYYCAGGGRLYFDYWGQGTTVTVSS
VL: DIVMTQSPLSLPVTPGEPASISCRSSQSLVHSNRDTYLRWYLQKPGQSPQLLIYKVSNRFSGVPDRFSGSGSGTDFTLKISRVEAEDVGVYYCSQSTHVPYTFGGGTKVEIKR
notes: Ig gamma-1 mutant / kappa
B2: huAb3v2.2 (antibody, V domains shown)
VH: B1 VH with E54W
VL: DIVMTQSPLSLPVTPGEPASISCRSSQSLVHSNRDTYLRWYLQKPGQSPQLLIYKVSNRFSGVPDRFSGSGSGTDFTLKISRVEAEDVGVYYCSQSTHVPYTFGGGTKVEIK
B3: huAb3v2.3 (antibody, V domains shown)
VH: B1 VH with E54W
VL: B2 VL with R34Q
B4: huAb3v2 (antibody, V domains shown)
VH: B1 VH with E54D
VL: B2 VL with R34G
B5: huAb3v2.6-SE (antibody, human IgG1, kappa, L234A L235A, V domains shown)
VH: B1 VH
VL: B1 VL with R34Q
modifications: synthon SE on interchain Cys
B6: huAb3v2.6-SR (antibody, human IgG1, kappa, L234A L235A, V domains shown)
VH: B1 VH
VL: B1 VL with R34Q
modifications: synthon SR on interchain Cys
B7: huAb3v2.6-KZ (antibody, human IgG1, kappa, L234A L235A, V domains shown)
VH: B1 VH
VL: B1 VL with R34Q
modifications: synthon KZ on interchain Cys
B8: huAb3v2.6-YG (antibody, human IgG1, kappa, L234A L235A, V domains shown)
VH: B1 VH
VL: B1 VL with R34Q
modifications: synthon YG on interchain Cys
B9: huAb13v1-AAD (antibody, human IgG1, kappa, L234A L235A, V domains shown)
VH: EVQLQESGPGLVKPSETLSLTCAVTGYSITSGYSWHWIRQFPGNGLEWMGYIHSSGSTNYNPSLKSRISISRDTSKNQFFLKLSSVTAADTAVYYCAGYDDYFEYWGQGTTVTVSS
VL: DIQMTQSPSSLSASVGDRVTITCKASQNVGFNVAWYQQKPGKSPKALIYSASYRYSGVPSRFSGSGSGTDFTLTISSLQPEDFAEYFCQQYNWYPFTFGQGTKLEIKR
modifications: synthon AAD on interchain Cys
B10: huAb13v1-LB (antibody, human IgG1, kappa, L234A L235A, V domains shown)
VH: B9 VH
VL: B9 VL
modifications: synthon LB on interchain Cys
B11: huAb13v1-WD (antibody, human IgG1, kappa, L234A L235A, V domains shown)
VH: B9 VH
VL: B9 VL
modifications: synthon WD on interchain Cys
B12: huAb13v1-ZT (antibody, human IgG1, kappa, L234A L235A, V domains shown)
VH: B9 VH
VL: B9 VL
modifications: synthon ZT on interchain Cys
B13: huAb13v1-ZZ (antibody, human IgG1, kappa, L234A L235A, V domains shown)
VH: B9 VH
VL: B9 VL
modifications: synthon ZZ on interchain Cys

target: T3, Cynomolgous B7-H3 on cells (cynomolgus); assay: FACS, 3T12 transfectants
T3 construct: whole, on cells; also called cyno B7-H3; cyB7-H3

| Binder | EC50 |
| --- | --- |
| B1 | 4.86 nM |
| B2 | 3.68 nM |
| B3 | 4.03 nM |
| B4 | 2.87 nM |

target: T1, Human full length B7-H3; assay: FACS, 3T12 transfectants

| Binder | EC50 |
| --- | --- |
| B2 | 5.29 nM |
| B3 | 6.5 nM |
| B4 | 5.11 nM |

target: T1, Human full length B7-H3; assay: cell-based or functional assay

| Binder | EC50 nM H1650 (in vitro tumor cell cytotoxicity) |
| --- | --- |
| B5 | 1.01 nM |
| B6 | 0.71 nM |
| B7 | 5.52 nM |
| B8 | 0.68 nM |
| B9 | 0.21 nM |
| B10 | > 133 nM |
| B11 | 0.45 nM |
| B12 | 0.3 nM |
| B13 | 0.42 nM |

target: T2, hB7-H3 (ELISA antigen of Tables 17 and …); assay: ELISA

| Binder | EC50 |
| --- | --- |
| B1 | 0.13 nM |
| B2 | 0.1 nM |
| B3 | 0.11 nM |
| B4 | 0.44 nM |
